Experiments:
[1] = molecular target: ternary complex (TC) of WT eIF2, GDPNP and Met-tRNAi, P20459;P09064;P32481; assay: TC dissociation kinetics, EMSA
[2] = test system: eIF2 with eIF2beta-F217A/Q221A;eIF1 (WT);eIF1A (WT);40S ribosomal subunit (Saccharomyces cerevisiae (yeast);Saccharomyces cerevisiae (yeast);Saccharomyces cerevisiae? (yeast);Saccharomyces cerevisiae (strain YAS2488)); assay: EMSA kinetics; conditions: aminoacylated with Met; 30 mM HEPES-KOH pH 7.4, 100 mM potassium acetate, 3 mM magnesium acetate, 2 mM DTT, 26 C; GDPNP; native gel shift
[3] = test system: eIF2 (WT), GDPNP-bound;eIF1-Q31A/F108A;eIF1A (WT);40S ribosomal subunit (Saccharomyces cerevisiae (yeast);Saccharomyces cerevisiae (yeast);Saccharomyces cerevisiae? (yeast);Saccharomyces cerevisiae (strain YAS2488)); assay: EMSA kinetics; conditions: aminoacylated with Met, 30 mM HEPES-KOH pH 7.4, 100 mM potassium acetate, 3 mM magnesium acetate, 2 mM DTT, 26 C, native gel shift
[4] = test system: eIF2 with eIF2beta-E189R;eIF1 (WT);eIF1A (WT);40S ribosomal subunit (Saccharomyces cerevisiae (yeast);Saccharomyces cerevisiae (yeast);Saccharomyces cerevisiae? (yeast);Saccharomyces cerevisiae (strain YAS2488)); assay: EMSA kinetics; conditions: aminoacylated with Met; 30 mM HEPES-KOH pH 7.4, 100 mM potassium acetate, 3 mM magnesium acetate, 2 mM DTT, 26 C; GDPNP; native gel shift
[5] = molecular target: 40S·eIF1·eIF1A·mRNA complex with WT eIF1, P32911;P38912; assay: TC binding kinetics (kobs versus [40S], as in Figure 6A–C); conditions: three independent experiments

Substance: 40S·eIF1·eIF1A·mRNA complex with WT eIF1 (from UniProt P32911;P38912) eIF1:F108D
- koff ([1]; mRNA(AUG), n = 3 (WT n = 5)): 5e-05 s⁻¹
- koff ([1]; mRNA(UUG), n = 3 (WT n = 5)): 7.5e-05 s⁻¹

Substance: 40S·eIF1·eIF1A·mRNA complex with WT eIF1 (from UniProt P32911;P38912) eIF1:Q31E
- koff ([1]; mRNA(UUG), n = 4 (WT n = 5)): 3.33e-05 s⁻¹

Substance: Met-tRNAi on 40S with mRNA(AUG)
- binding signal (fold decrease in kon vs WT eIF2) [2]: 1.5
- binding signal (fold decrease in kon vs WT eIF1) [3]: 2

Substance: Met-tRNAi on 40S with mRNA(UUG)
- binding signal (fold decrease in koff vs WT eIF2) [4]: 2
- binding signal (fold decrease in kon vs WT eIF2) [2]: 1.5

Substance: ternary complex (TC) of WT eIF2, GDPNP and Met-tRNAi (from UniProt P20459;P09064;P32481) eIF2β:S202A; eIF2β:K214A
- kon ([5]; mRNA(AUG)): 4.11 s⁻¹
- kon ([5]; mRNA(UUG)): 2.76 s⁻¹

From paper PMC6411837
